Data published in patent US20240240160A1, “NOVEL OLIVETOL SYNTHASES FOR C[…]” (priority 2021, published 2024).

Key:
[1] = test system: E. coli derivative strain which overexpressed an acyl-CoA synthetase (fadD) gene and expressed an olivetolic acid cyclase (OAC) from Cannabis sativa; test: OL, OLA and PDAL production in E. coli from genome-integrated Type-III PKS genes; type: cell-based
Protocol: To test olivetolic acid production in E. coli, strains comprising a putative OLS gene and an OAC gene from C. sativa were inoculated in multi-well plates containing LB supplemented with 1% glucose and appropriate concentrations of antibiotics. After 6 hours of cultivation at 32° C., the cells were transferred with a 10% inoculum to a P-limited seed medium (see Table 2) and cultivated for ˜18 hours at 32° ° C. to reach an OD of 2.0-4.0. The cultures were transferred with a 20% inoculum in a P-minimal medium (see Table 3) supplemented with 2% glucose and appropriate concentrations of antibiotics. After 3 hours of cultivation at 32° C., the culture was spiked with 4 mM hexanoic acid (˜OD 1.5-2.0). The resulting cultures were then harvested at either 3 hours or 21 hours post hexanoic acid spike; a final OD was taken. 300 μL of butyl acetate containing 500 mg/L undecanoic acid was added to each multi-well plate. The plates were then vortexed for 30 minutes at 1500 rpm and centrifuged for 10 minutes at 4500 rpm. 50 μL of organic layer was transferred to a 96-well plate and derivatized with 50 μL of N,O-Bis(trimethylsilyl)trifluoroacetamide (BSTFA). The plate was then incubated at room temperature for 2 hours to allow for complete derivatization. The samples were then run on GC-FID for analytical quantification of olivetolic acid (OLA), olivetol (OL), PDAL, and hexanoic acid.
Olivetol, PDAL, OLA, HTAL, CBGA and combinations thereof were analyzed by LCMS or LCMS/MS methods using C18 reversed phase chromatography coupled to either EXACTIVE™ (ThermoFisher) or QTRAP® 4500 (Sciex) mass spectrometers.
For reversed phase LCMS, compounds were identified by their LC retention times and MRM transitions specific to the compounds. LCMS/MS analysis was conducted on a Shimadzu UHPLC system coupled with AB Sciex QTRAP 4500 mass spectrometer. Agilent Eclipse XDB C18 column (4.6×3.0 mm, 1.8 μm) was used with a 1-min gradient elution at 1 mL/min using water containing 0.1% ammonia acetate as mobile phase A and 90% methanol containing 0.1% ammonia acetate as mobile phase B. The LC column temperature was maintained at 45° C. Negative ionization mode was used for all the analytes.
Three of the type-III PKS genes from Example 1 were integrated under control of a constitutive promoter into an E. coli derivative strain which overexpressed an acyl-CoA synthetase (fadD) gene and expressed an olivetolic acid cyclase (OAC) from Cannabis sativa.
The in vivo assay procedure and analytical methods were performed as described above.

[2] = test system: hexanoyl-CoA or butyryl-CoA; test: High-throughput activity assay of OLS_Aro and its variants in cell lysate; type: biochemical; conditions: in the absence of Olivetolic acid Cyclase (OAC)
Text: Single amino acid positions of interest of OLS_Aro were identified based on a 7 Å radial proximity around the active site predicted based on docking results with the tetraketide product into a structural homology model of OLS_Aro. Variants were constructed as a plasmid-based library using specific primers at the positions undergoing mutagenesis, amplifying fragments via Polymerase Chain Reaction (PCR), and circularizing plasmids via Gibson ligation. For site-saturation mutagenesis of selected amino acids sites, a compressed-codon approach was used to eliminate codon redundancy to lower library size. The plasmid-base used was the pZS*vector (Novagen) with expression of the OLS_Aro under control of a pAl promoter and lactose (lac) operator. […]
Single colonies were picked for growth in Luria Bertani (LB) medium in 384-well plates containing with carbenicillin (Carb). […] Cells pellets were stored at −20° C. until ready for assay. […]
Reactions were initiated by addition of cell lysate, then incubated for 20 mins or 1 hr for hexanoyl-CoA and butyryl-CoA, respectively. […] Filtrates analyzed by LC/MS for the quantification of olivetolic acid (OLA), olivetol (OL), and pentyl diacetic acid lactone (PDAL); or divarinic acid (DVA), divarinol (DVL), and propyl diacetic acid lactone (Propyl-DAL). […]
Under the screening conditions described above, products are detected in the low or sub μM range. […]

[3] = test system: hexanoyl-CoA and malonyl-CoA; test: Specific activity assay of purified type-III polyketide synthases (OLA formation in presence of OAC); type: biochemical; conditions: hexanoyl-CoA and malonyl-CoA in the presence of OAC; FIG. 3
Protocol: In this Example, the specific activities of three previously uncharacterized type-III polyketide synthases (PKS) to form olivetolic acid from hexanoyl-CoA and malonyl-CoA in the presence of olivetolic acid cyclase (OAC) were determined and compared to the olivetol synthase (OLS) from C. sativa.
Assays were performed in a total volume of 50 μL in 100 mM Tris, pH 7.5 buffer containing 100 μM malonyl-CoA; 100 µM hexanoyl-CoA; a malonyl-CoA regenerating system comprising malonyl-CoA synthetase, excess malonate, and ATP; and excess purified olivetolic acid cyclase (OAC). The major product in this assay was olivetolic acid (OLA), and the triketide pentyl diacetic acid lactone (PDAL) was a side product. N-His-tagged purified enzymes were assayed under these assay conditions at enzyme concentrations and reaction times suitable for initial rate measurements of product formation. Reactions were initiated by addition of the PKS, then incubated for 30 min. Subsequently, 10 μL of reaction solution was removed and quenched into 15 volumes of 75% acetonitrile containing 0.1% formic acid and internal standards, then centrifuged to pellet denatured protein. Supernatants were transferred to fresh plates for LC-MS analysis of OLA, olivetol (OL), and PDAL as described in the Method section above.

[4] = test system: E. coli derivative strain which overexpressed an acyl-CoA synthetase (fadD) gene and expressed an olivetolic acid cyclase (OAC) from Cannabis sativa; test: OL, OLA and PDAL production in E. coli from plasmid-expressed Type-III PKS genes; type: cell-based; conditions: gene on plasmid
Summary of the method: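 E. coli strains expressing codon-optimized Type-III PKS genes (constitutive promoter) plus fadD overexpression and C. sativa OAC, grown at 32° C in P-minimal medium with 2% glucose, spiked with 4 mM hexanoic acid; harvested 3 h or 21 h post-spike. Butyl acetate extracts BSTFA-derivatized, OLA/OL/PDAL quantified by GC-FID.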

[5] = constitutive promoter, 4 mM hexanoic acid
[6] = constitutive promoter, culture spiked with 4 mM hexanoic acid

B1: QDX46968.1: Type-III PKS enzyme (OLS) from Anoectochilus roxburghii, designated OLS_Aro (protein, listed as Anoectochilus roxburghii)
chain: MPSLESIRKAPRADGLASILAIGRANPDNFMEQSSFPDFFFRITGSDHLVDLKKKFQRICDRTAIRKRHFVWNEEFIKANPCFSTFMDNSLNVRQEVAIREIPKLGAEAATKAIKEWGQPKSRITHLIFCTTSGMDLPGADYQLTRILGLNPNVERVMLYQQGCFAGGTTLRLAKCLAESRKGARVLVVCAETTTVLFRAPSEEHQEDLVTQALFADGASAVIVGADPDEEAHEKASFVIFSTSQVLLPDSEGAIGGHVSEGGLLATLHRDVPQLVSKNVGKCLEEAFTPLGISDWNSIFWVPHPGGRAILDQIEERVGLKPEKLTTSRHVLAEYGNMSSVCVHFVLDEMRKKSSKEGKATTGEGLEWGVLFGFGPGLTVETVVLRSVPL
modifications: (1)..(390) QDX46968.1
products produced by strains with chromosomally expressed enzyme [1]: produced olivetol (OL), olivetolic acid (OLA) and pentyl diacetic acid lactone (PDAL)
Total ([1]; OL + OLA + PDAL): 276 µM
OL [1, 5]: 98 µM
OLA [1, 5]: 136 µM
PDAL [1, 5]: 42 µM
reaction products [2]: the major products are OL and PDAL or DVL and Propyl-DAL
specific activity to form olivetolic acid compared with OLS from C. sativa [3]: higher specific activities
Total ([4]; OL + OLA + PDAL): 1956 µM
levels of OLA relative to the E. coli strain with OLS from C. sativa [4]: over two-fold
OL [4, 6]: 597 µM
OLA [4, 6]: 823 µM
PDAL [4, 6]: 536 µM
